The values that follow come from PMC12599243, “Mechanistic insights into DNA binding by BD1 of the TAF1 tandem bromodomain module”.

For data set [1], the target named is T1, TAF1 tandem bromodomain (BD1-BD2) (human, UniProt P21675 1402-1656).
T1 sequence: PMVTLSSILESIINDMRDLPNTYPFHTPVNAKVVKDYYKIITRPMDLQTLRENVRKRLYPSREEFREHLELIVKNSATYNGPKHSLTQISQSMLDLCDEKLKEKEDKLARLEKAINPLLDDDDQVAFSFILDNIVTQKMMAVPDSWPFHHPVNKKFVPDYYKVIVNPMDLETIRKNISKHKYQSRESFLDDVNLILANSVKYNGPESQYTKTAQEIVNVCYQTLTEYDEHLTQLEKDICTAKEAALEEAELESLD
As to the kind of experiment: EMSA. The conditions noted are these: EMSA: 50 mM HEPES pH 7.5, 100 mM NaCl, 35 nM DNA, 1 h at 4 C, 6% native PAGE, 0.5x TBE, 100 V on ice. HeLa mononucleosome pulldown (undefined DNA) not listed. In general terms: A gel shift assay detects complexes by their altered migration in electrophoresis.

For data set [2], the target named is Histone H4 H4K5acK12ac peptide (Homo sapiens) (UniProt P62805). The conditions noted are these: cited from earlier work.
The target of data set [3] is Histone H4 H4K8acK16ac peptide (Homo sapiens) (UniProt P62805). The following applies: cited from earlier work.
Data set [4] deals with TAF1 tandem bromodomain BD1 triple mutant (R1435S/K1436S/R1437S), 6xHis-tagged (human). Kind of data set: pull-down; 20 μg hyperacetylated HeLa mononucleosomes (cells treated with trichostatin A) mixed with 50 μM 6xHis-tagged TAF1 tandem bromodomain or its mutant, 4°C, 60 min; captured on Ni-NTA agarose; washed with 50 mM HEPES pH 7.5, 500 mM KCl, 2 mM EDTA, 0.1% Tween-20; eluted with 500 mM imidazole; western blot with anti-H4K5ac and anti-H4K8ac.

Data set [5] has as its target T1, TAF1 tandem bromodomain (BD1-BD2). Kind of data set: EMSA; no peptide; EMSA: 50 mM HEPES pH 7.5, 100 mM NaCl, 35 nM DNA, 1 h at 4 C; 6% native PAGE, 0.5x TBE, 100 V on ice. HeLa mononucleosome pulldown (undefined DNA) not listed. The conditions noted are these: protein: recombinant; tags: C-terminal 6xHis; label: none (SYBR Gold stain); blunt.

Broadly, the Kd is the constant that tells how readily two partners part at equilibrium.

Consider 147 bp Widom 601 DNA, for which the Kd was 19.7 µM in data set [1] (320 uM H4(1-15)K5acK12ac peptide) and 16.8 µM in data set [1] (no peptide).

Consider “TAF1 tandem bromodomain (from UniProt P21675)”, for which the Kd in data set [2] is 1400 nM; in data set [3], 5.3 µM.

Take “acetylated mononucleosomes isolated from HeLa cells (from UniProt P62805 1-103) (complex)”: the fold decrease in binding against wildtype in data set [4] came to 1.5 fold.

B1: 147 bp GC-rich 601 DNA (AT-tracts mutated to GC) (dsDNA)
DNA 1: CTGGAGAATCCCGGTGCCGAGGCCGCTCGACTGGTCGTAGACAGCTCTAGCACCGCTCAGACGCACGTACGCGCTGTCCCCCGCGTTTCAGCCGCCAAGGGGACTGCTCCCTAGTCTCCAGGCACGTGTCAGATGCGTACATCCTGT
DNA 2: ACAGGATGTACGCATCTGACACGTGCCTGGAGACTAGGGAGCAGTCCCCTTGGCGGCTGAAACGCGGGGGACAGCGCGTACGTGCGTCTGAGCGGTGCTAGAGCTGTCTACGACCAGTCGAGCGGCCTCGGCACCGGGATTCTCCAG
On to B1, for which, in data set [5], the Kd amounted to 34.2 ± 5.4 µM.
